B1: Hairpin Ribozyme (parent)
chain: GUCCUCUUUCACGUGCGCGUGAAAGAGAGAAGUGAACCAGAGAAACACACGUUGUGGUAUAUUACCUGGUA

Variants of: B1
Test: self-cleavage, relative activity (ratio to wild type); higher = more cleavage; co-transcriptional
For GUCCUCUUUCACGUGCGCGAGAAAGAGAGAAGUGAACCAGAGAAACACACGUUGUAGUAUAUUACCUGGUA, the self-cleavage was 0.108.
With GUCCUCUUUCACGUGCGCGAGAAAGAGAGAAGUGAACCAGAGAAACACACGUUGUCGUAUAUUACCUGGUA the self-cleavage was 0.145.
Variant GUCCUCUUUCACGUGCGCGCGAAAGAGAGAAGUGAAACAGAGAAACACACGUUGUGGUAUAUUACCUGGUA has a self-cleavage of 0.426.
In the case of GUCCUCUUUCACGUGCGCGCGAAAGAGAGAAGUGAAGCAGAGAAACACACGUUGUGGUAUAUUACCUGGUA, the self-cleavage is reported as 0.342.
Work on GUCCUCUUUCACGUGCGCGAGAAAGAGAGAAGUGAACCACAGAAACACACGUUGUGGUAUAUUACCUGGUA yielded a self-cleavage of 0.0677.
For GUCCUCUUUCACGUGCGCGAGAAAGAGAGAAGUGAACCAGAGAAACACACGGUGUGGUAUAUUACCUGGUA, the self-cleavage was 0.685.
Variant GUCCUCUUUCACGUGCGCGCGAAAGAGAGAAGUGAACCAGAGAAACUCACGUUGUGGUAUAUUACCUGGUA has a self-cleavage of 0.161.
GUCCUCUUUCACGUGCGCGAGAAAGAGAGAAGUGAACCAGAGAAACACACGUUAUGGUAUAUUACCUGGUA showed a self-cleavage of 0.546.
In the case of GUCCUCUUUCACGUGCGCGAGAAAGAGAGAAGUGAACCAGAGAACCACACGUUGUGGUAUAUUACCUGGUA, the self-cleavage is reported as 0.109.
In the case of GUCCUCUUUCACGUGCGCGAGAAAGAGAGAAGUGAACCAGAGAAGCACACGUUGUGGUAUAUUACCUGGUA, the self-cleavage is reported as 0.183.
For GUCCUCUUUCACGUGCGCGAGAAAGAGAGAAGUGAACCAGAGAAACACACGUUGUGGUAUAUUACCUUGUA, the self-cleavage was 0.297.
Work on GUCCUCUUUCACGUGCGCGAGAAAGAGAGAAGUGAACCAGAGAAACACACGUUGUGGUAUAUUACCUAGUA yielded a self-cleavage of 0.332.
GUCCUCUUUCACGUGCGCGAGAAAAAGAGAAGUGAACCAGAGAAACACACGUUGUGGUAUAUUACCUGGUA showed a self-cleavage of 0.453.
GUCCUCUUUCACGUGCGCGAGAAAUAGAGAAGUGAACCAGAGAAACACACGUUGUGGUAUAUUACCUGGUA showed a self-cleavage of 0.529.
Variant GUCCUCUUUCACGUGCGCGCGAAAGAGAGAAGUGAACCAGAGCAACACACGUUGUGGUAUAUUACCUGGUA has a self-cleavage of 0.0285.
With GUCCUCUUUCACGUGCGCGAGAAAGAGAGAAGUGAACCAGAGAAACACACGUAGUGGUAUAUUACCUGGUA the self-cleavage was 0.758.
Work on GUCCUCUUUCACGUGCGCGAGAAAGAGAGAAGUGAAGCAGAGAAACACACGUUGUGGUAUAUUACCUGGUA yielded a self-cleavage of 0.375.
Work on GUCCUCUUUCACGUGCGCGAGAAAGAGAGAAGUGAACCAGAGAAACACACGUUGUGGUAUAAUACCUGGUA yielded a self-cleavage of 0.239.
GUCCUCUUUCACGUGCGCGAGAAAGAGAGAAGUAAACCAGAGAAACACACGUUGUGGUAUAUUACCUGGUA gave a self-cleavage of 0.993.
Variant GUCCUCUUUCACGUGCGCGAGAAAGAGAGAAGUCAACCAGAGAAACACACGUUGUGGUAUAUUACCUGGUA has a self-cleavage of 1.26.
For GUCCUCUUUCACGUGCGCGAGAAAGAGAGAAGUGAACCAGAGAAACACACGUUGUGGUAUAUUACCCGGUA, the self-cleavage was 0.237.
Variant GUCCUCUUUCACGUGCGCGCGAAAGAGAGAAGUGAACUAGAGAAACACACGUUGUGGUAUAUUACCUGGUA has a self-cleavage of 0.415.
GUCCUCUUUCACGUGCGCGCGAAAGAGAGAAGUGAACGAGAGAAACACACGUUGUGGUAUAUUACCUGGUA showed a self-cleavage of 0.154.
With GUCCUCUUUCACGUGCGCGAGAAAGAGAGAAGUGAACCAGAGAAACACACCUUGUGGUAUAUUACCUGGUA the self-cleavage was 0.846.
Work on GUCCUCUUUCACGUGCGCGAGAAAGAGAGACGUGAACCAGAGAAACACACGUUGUGGUAUAUUACCUGGUA yielded a self-cleavage of 0.21.
Work on GUCCUCUUUCACGUGCGCGAGGAAGAGAGAAGUGAACCAGAGAAACACACGUUGUGGUAUAUUACCUGGUA yielded a self-cleavage of 0.587.
Work on GUCCUCUUUCACGUGCGCGAGUAAGAGAGAAGUGAACCAGAGAAACACACGUUGUGGUAUAUUACCUGGUA yielded a self-cleavage of 0.849.
Variant GUCCUCUUUCACGUGCGCGAGCAAGAGAGAAGUGAACCAGAGAAACACACGUUGUGGUAUAUUACCUGGUA has a self-cleavage of 0.373.
Work on GUCCUCUUUCACGUGCGCGAGAAAGAGAGAAGUGAUCCAGAGAAACACACGUUGUGGUAUAUUACCUGGUA yielded a self-cleavage of 0.497.
With GUCCUCUUUCACGUGCGCGAGAAAGAGUGAAGUGAACCAGAGAAACACACGUUGUGGUAUAUUACCUGGUA the self-cleavage was 0.497.
Variant GUCCUCUUUCACGUGCGCGCGAAAGAGAGAAGUGAACCAGAGAAACACUCGUUGUGGUAUAUUACCUGGUA has a self-cleavage of 0.148.
Work on GUCCUCUUUCACGUGCGCGAGAAAGAGAGAAGUGAACCAGAGAAACACACGUUGUGGUAUAUUACCUGGUC yielded a self-cleavage of 1.15.
Variant GUCCUCUUUCACGUGCGCGAGAAAGAGAGAAGUGAACCAGAGAAACACACGUUGUGGUAUAUUACCUGGUU has a self-cleavage of 0.735.
GUCCUCUUUCACGUGCGCGCGAAAGAGAGAAGUGUACCAGAGAAACACACGUUGUGGUAUAUUACCUGGUA gave a self-cleavage of 0.82.
Work on GUCCUCUUUCACGUGCGCGCGAAAGAGAGAAGUGCACCAGAGAAACACACGUUGUGGUAUAUUACCUGGUA yielded a self-cleavage of 0.785.
GUCCUCUUUCACGUGCGCGAGAAAGAGAGAAGUGAACCAGAGAAACACAAGUUGUGGUAUAUUACCUGGUA gave a self-cleavage of 0.423.
GUCCUCUUUCACGUGCGCGAGAAAGAGAGAAGUGAACCAGAGAAACACAUGUUGUGGUAUAUUACCUGGUA gave a self-cleavage of 0.5.
For GUCCUCUUUCACGUGCGCGCGAAGGAGAGAAGUGAACCAGAGAAACACACGUUGUGGUAUAUUACCUGGUA, the self-cleavage was 0.758.
